Article PMC9135769, “A topological refactoring design strategy yields highly stable granulopoietic proteins” (Nature Communications, 2022)

T1: G-CSF Receptor (G-CSFR) (human, UniProt Q99062 25-333)
T1 construct: G-CSF receptor (G-CSFR), human, bought recombinant protein; In the functional rows the receptor is the one on the cells of the test (murine NFS-60 or human CD34+ HSPCs); also called human G-CSFR; human G-CSF receptor; source: bought: R&D systems 381-GR-050/CF
T1 sequence: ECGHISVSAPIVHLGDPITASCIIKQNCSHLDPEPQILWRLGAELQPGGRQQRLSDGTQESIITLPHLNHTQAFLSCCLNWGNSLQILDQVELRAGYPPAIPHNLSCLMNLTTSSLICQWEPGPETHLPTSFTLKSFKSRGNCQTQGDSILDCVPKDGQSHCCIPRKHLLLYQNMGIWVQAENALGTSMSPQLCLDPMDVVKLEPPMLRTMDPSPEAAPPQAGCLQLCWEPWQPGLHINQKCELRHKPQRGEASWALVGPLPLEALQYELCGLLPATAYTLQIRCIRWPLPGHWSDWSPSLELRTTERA


Experiments:
G-CSFR (Homo sapiens) [1] = target: G-CSFR (Homo sapiens) (UniProt Q99062); assay: ITC; settings: cited from earlier work
G-CSFR (Homo sapiens) [2] = target: G-CSFR (Homo sapiens) (UniProt Q99062); assay: SPR; settings: cited from earlier work
G-CSF Receptor (G-CSFR) = target: T1, G-CSF Receptor (G-CSFR); assay: SPR; G-CSFR amine-coupled on a CM5 chip (Biacore X100), analytes flowed over, multi-cycle kinetics, 25 °C, 10 mM HEPES pH 7.4, 150 mM NaCl, 3.4 mM EDTA, 0.005% Tween-20; 1:1 model, linear fit of kobs against concentration; legend speaks of apparent affinity for the bivalent ligands; settings: both partners purified

Sequence of G-CSF (P09919 31-207): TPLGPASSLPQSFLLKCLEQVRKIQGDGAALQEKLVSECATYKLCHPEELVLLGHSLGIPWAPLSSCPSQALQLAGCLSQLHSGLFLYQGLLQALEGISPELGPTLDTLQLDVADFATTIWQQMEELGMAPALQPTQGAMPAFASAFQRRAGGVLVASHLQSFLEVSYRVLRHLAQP

Row | Kd (G-CSF Receptor (G-CSFR)) [nM] | koff (G-CSF Receptor (G-CSFR)) [s⁻¹] | kon (G-CSF Receptor (G-CSFR)) [M⁻¹ s⁻¹] | Molecule | Kd (G-CSFR (Homo sapiens) [1]) [nM] | Kd (G-CSFR (Homo sapiens) [2]) [nM]
1 |  |  |  | G-CSF (from UniProt P09919) | 1.4 | 0.2
2 | 1.1 | 0.00049 | 300000 | Recombinant human G-CSF (rhG-CSF), USP RS Filgrastim (ligand, UniProt P09919-2 31-204, looked up, granulocyte-colony stimulating factor (G-CSF), human, recombinant; printed length 174 amino acids; also called granulocyte-colony stimulating factor; wild-type G-CSF; source: bought: USP RS Filgrastim, Sigma-Aldrich 1270435) TPLGPASSLPQSFLLKCLEQVRKIQGDGAALQEKLCATYKLCHPEELVLLGHSLGIPWAPLSSCPSQALQLAGCLSQLHSGLFLYQGLLQALEGISPELGPTLDTLQLDVADFATTIWQQMEELGMAPALQPTQGAMPAFASAFQRRAGGVLVASHLQSFLEVSYRVLRHLAQP |  | 
